Assay results: FireProtDB (doi:10.1016/s0301-4622(99)00119-2)
Where “and” joins values, the source holds several entries; their conditions need not be identical. Identical values can stand only once.

Details: Bos taurus, pH 7, Absorbance, Sodium phosphate 100 mM

Sequence of Cytochrome b wild type, P00157 (P00157 whole entry): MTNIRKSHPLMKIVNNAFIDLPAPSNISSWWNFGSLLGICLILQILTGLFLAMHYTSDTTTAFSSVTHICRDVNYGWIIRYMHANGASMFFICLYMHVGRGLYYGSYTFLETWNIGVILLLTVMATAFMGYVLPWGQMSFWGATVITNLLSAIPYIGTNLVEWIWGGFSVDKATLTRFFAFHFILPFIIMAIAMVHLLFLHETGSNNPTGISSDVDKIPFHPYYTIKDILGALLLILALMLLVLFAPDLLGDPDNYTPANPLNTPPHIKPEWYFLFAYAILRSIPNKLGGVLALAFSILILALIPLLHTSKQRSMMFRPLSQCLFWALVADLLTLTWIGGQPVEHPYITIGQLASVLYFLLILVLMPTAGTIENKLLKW

For Cytochrome b wild type, P00157, the “denaturant midpoint (higher = more stable)” value (25 °C, Urea) was 6.8 M and the “unfolding enthalpy (van 't Hoff)” value (Thermal) was 90.1 kcal/mol and 85.6 kcal/mol.
